Source: patent US20260263595A1 (BETH ISRAEL DEACONESS MEDICAL CENTER, published 2026)

Target: T1, human CD40 on human B cells (CD20+ cells of human PBMCs) (human, UniProt P25942 21-277)
T1 construct: whole, on cells; also called native CD40 on human blood B cells; human CD20+ B cells
Experiment: flow cytometry on human PBMCs, CD20+ gate (FIG. 2A)
Protocol: The CD40 antibody 2C10 was characterized with respect to its ability to affect B cell activation both using rhesus monkey and human peripheral blood mononuclear cells (PBMCs). CD20 expression was chosen as being an indicator of B cells, and expression of CD23, CD80, and CD86 is associated with B cell activation. 2C10 was first assessed for its ability to bind to […]. Rhesus or human PBMCs were incubated with fluorochrome-conjugated 2C10 and an anti-CD20 antibody. Flow cytometric analysis was used to confirm the binding of 2C10 to human and rhesus CD20+ B cells (FIG. 2A). In another set of experiments, PBMCs from either rhesus monkey or humans were cultured either in the presence or absence of CD154⁺ Jurkat D1.1 cells, an immortalized T lymphocyte cell line. Activation of B cells was determined by measuring expression of three markers (CD23, CD80, and CD86) in CD20⁺ cells present in the PBMCs.

T1 sequence (P25942 21-277): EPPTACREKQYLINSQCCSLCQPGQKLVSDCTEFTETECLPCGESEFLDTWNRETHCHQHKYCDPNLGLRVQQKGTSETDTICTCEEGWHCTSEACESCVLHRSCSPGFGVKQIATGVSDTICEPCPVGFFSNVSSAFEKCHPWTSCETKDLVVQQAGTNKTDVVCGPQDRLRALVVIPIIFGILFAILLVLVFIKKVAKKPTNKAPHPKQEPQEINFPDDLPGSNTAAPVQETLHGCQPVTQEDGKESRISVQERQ

binding result: binds
B1: anti-CD40 antibody 2C10 (antibody, mouse IgG1, V domains shown)
VH: QVQLQQSGAELAKPGASVKMSCKASGYTFTNYWMHWVKQRPGQGLEWIGYINPSNDYTKYNQKFKDKATLTADKSSNTAYMQLGSLTSEDSAVYYCARQGFPYWGQGTLVTVS
VL: QIVLTQSPAIMSASPGEKVTMTCSASSSVSYMHWYHQRSGTSPKRWIYDTSKLASGVPARFSGSGSGTSYSLTISSMEAEDAATYYCHQLSSDPFTFGSGTKLEIK
notes: also called 2C10 antibody; APC-conjugated 2C10
